Reference: publication PMC10786891, “Massively parallel profiling of RNA-targeting CRISPR-Cas13d”

Target: T1, EsCas13d, nuclease-dead (Eubacterium siraeum, UniProt B0MS50, R295A;H300A;R849A;H854A)
T1 sequence: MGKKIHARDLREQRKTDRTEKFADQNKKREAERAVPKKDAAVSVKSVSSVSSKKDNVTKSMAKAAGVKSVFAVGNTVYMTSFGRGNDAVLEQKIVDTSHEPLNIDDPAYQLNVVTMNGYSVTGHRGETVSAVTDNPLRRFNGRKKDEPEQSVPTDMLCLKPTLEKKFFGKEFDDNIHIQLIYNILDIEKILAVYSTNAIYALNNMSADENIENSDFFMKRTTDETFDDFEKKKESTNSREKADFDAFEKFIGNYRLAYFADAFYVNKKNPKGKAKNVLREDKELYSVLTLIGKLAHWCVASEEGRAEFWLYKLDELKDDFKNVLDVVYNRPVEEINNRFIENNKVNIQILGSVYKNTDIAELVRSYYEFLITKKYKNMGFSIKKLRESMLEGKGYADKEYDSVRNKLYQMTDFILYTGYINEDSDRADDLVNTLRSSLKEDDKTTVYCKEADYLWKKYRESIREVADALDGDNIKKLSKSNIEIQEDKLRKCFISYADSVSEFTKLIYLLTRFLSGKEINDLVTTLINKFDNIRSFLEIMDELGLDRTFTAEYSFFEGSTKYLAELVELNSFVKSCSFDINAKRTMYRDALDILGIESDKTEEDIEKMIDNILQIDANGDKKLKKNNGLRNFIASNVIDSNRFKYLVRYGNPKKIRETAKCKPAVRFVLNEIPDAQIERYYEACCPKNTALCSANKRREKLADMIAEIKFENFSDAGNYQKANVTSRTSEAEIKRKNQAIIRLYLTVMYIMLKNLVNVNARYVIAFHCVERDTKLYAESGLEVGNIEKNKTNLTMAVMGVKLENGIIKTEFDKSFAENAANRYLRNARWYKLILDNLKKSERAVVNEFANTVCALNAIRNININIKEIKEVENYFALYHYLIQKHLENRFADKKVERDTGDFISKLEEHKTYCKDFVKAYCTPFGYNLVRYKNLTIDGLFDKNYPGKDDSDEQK
Test: crRNA (strand 1, pre-loaded); Mg2+; 40 mM Tris-HCl pH 7.5, 150 mM NaCl, 6 mM MgCl2, 1 mM DTT, 0.1% Tween-20, 0.2 mg/ml BSA; 25 C; 10 min per concentration, then washed
Conditions: tags: His6-TwinStrep-SUMO cleaved; N-terminal SNAP kept (SNAP-Surface 488); label: 3' end held by stalled T7 RNA polymerase

B1: target 1 insC 3' of 17,insU 3' of 2 (mixed)
RNA 1: CACCCGUGCAAAAAUGCAGGGGUCUAAAACUGAGCGGAUAACCUCUCUAUGG
RNA 2: GGGAAUGGAUCCACAUCUACGAAUUCGUACCAUAGCAGAGGUUAUCCGCUCUACCGAGAUCGGAAGAGCACACGU
B1 showed a Kd of 55 ± 18 nM.

B2: target 1 C2U,G5A (mixed)
RNA 1: CACCCGUGCAAAAAUGCAGGGGUCUAAAACUGAGCGGAUAACCUCUCUAUGG
RNA 2: GGGAAUGGAUCCACAUCUACGAAUUCGUACCAUAGAGAGGUUAUCCACUUACCGAGAUCGGAAGAGCACACGU
B2 was tested, and the Kd was 49 ± 9 nM.

B3: target 1 insG 3' of 3,insC 3' of 1 (mixed)
RNA 1: CACCCGUGCAAAAAUGCAGGGGUCUAAAACUGAGCGGAUAACCUCUCUAUGG
RNA 2: GGGAAUGGAUCCACAUCUACGAAUUCGUACCAUAGAGAGGUUAUCCGCUGCACCCGAGAUCGGAAGAGCACACGU
With B3 the Kd was 11.5 ± 0.9 nM.

B4: target 3 U7C,U8G (mixed)
RNA 1: CACCCGUGCAAAAUUGCAGGGGUCUAAAACGACCUGAAUAUUUCAGAUCAAA
RNA 2: GGGAAUGGAUCCACAUCUACGAAUUCGUUUUUGAUCUGAAAUAGCCAGGUCUGCAGAUCGGAAGAGCACACGU
In the case of B4, the Kd is reported as 73.5 ± 12.5 nM.

B5: target 3 C1U,U2A (mixed)
RNA 1: CACCCGUGCAAAAUUGCAGGGGUCUAAAACGACCUGAAUAUUUCAGAUCAAA
RNA 2: GGGAAUGGAUCCACAUCUACGAAUUCGUUUUUGAUCUGAAAUAUUCAGGAUUGCAGAUCGGAAGAGCACACGU
B5 was tested, and the Kd was 86 ± 24 nM.

B6: target 3 C1A,C16U (mixed)
RNA 1: CACCCGUGCAAAAUUGCAGGGGUCUAAAACGACCUGAAUAUUUCAGAUCAAA
RNA 2: GGGAAUGGAUCCACAUCUACGAAUUCGUUUUUGAUUUGAAAUAUUCAGGUAUGCAGAUCGGAAGAGCACACGU
B6 gave a Kd of roughly 91 nM.

B7: target 3 insC 3' of 13,insU 3' of 4 (mixed)
RNA 1: CACCCGUGCAAAAUUGCAGGGGUCUAAAACGACCUGAAUAUUUCAGAUCAAA
RNA 2: GGGAAUGGAUCCACAUCUACGAAUUCGUUUUUGAUCUGACAAUAUUCAGUGUCUGCAGAUCGGAAGAGCACACGU
For B7, the Kd was 59.5 ± 17.5 nM.

B8: target 3 del4,del8 (mixed)
RNA 1: CACCCGUGCAAAAUUGCAGGGGUCUAAAACGACCUGAAUAUUUCAGAUCAAA
RNA 2: GGGAAUGGAUCCACAUCUACGAAUUCGUUUUUGAUCUGAAAUAUCAGUCUGCAGAUCGGAAGAGCACACGU
With B8 the Kd was 97 ± 29 nM.

B9: target 3 insU 3' of 22,insU 3' of 13 (mixed)
RNA 1: CACCCGUGCAAAAUUGCAGGGGUCUAAAACGACCUGAAUAUUUCAGAUCAAA
RNA 2: GGGAAUGGAUCCACAUCUACGAAUUCGUUUUUUGAUCUGAUAAUAUUCAGGUCUGCAGAUCGGAAGAGCACACGU
Binder B9 has a Kd of 71 ± 33 nM.

B10: target 3 G3U,U8A (mixed)
RNA 1: CACCCGUGCAAAAUUGCAGGGGUCUAAAACGACCUGAAUAUUUCAGAUCAAA
RNA 2: GGGAAUGGAUCCACAUCUACGAAUUCGUUUUUGAUCUGAAAUAAUCAGUUCUGCAGAUCGGAAGAGCACACGU
B10 showed a Kd of 89 ± 14.5 nM.

B11: target 3 A5U,U8G (mixed)
RNA 1: CACCCGUGCAAAAUUGCAGGGGUCUAAAACGACCUGAAUAUUUCAGAUCAAA
RNA 2: GGGAAUGGAUCCACAUCUACGAAUUCGUUUUUGAUCUGAAAUAGUCUGGUCUGCAGAUCGGAAGAGCACACGU
For B11, the Kd was 92.5 ± 16.5 nM.

B12: target 3 insU 3' of 22,insU 3' of 3 (mixed)
RNA 1: CACCCGUGCAAAAUUGCAGGGGUCUAAAACGACCUGAAUAUUUCAGAUCAAA
RNA 2: GGGAAUGGAUCCACAUCUACGAAUUCGUUUUUUGAUCUGAAAUAUUCAGGUUCUGCAGAUCGGAAGAGCACACGU
Binder B12 has a Kd of 27.2 ± 4.15 nM.

B13: target 3 C1G,U8A (mixed)
RNA 1: CACCCGUGCAAAAUUGCAGGGGUCUAAAACGACCUGAAUAUUUCAGAUCAAA
RNA 2: GGGAAUGGAUCCACAUCUACGAAUUCGUUUUUGAUCUGAAAUAAUCAGGUGUGCAGAUCGGAAGAGCACACGU
Work on B13 yielded a Kd of 45.5 ± 15.5 nM.

B14: target 3 A9G,U22C (mixed)
RNA 1: CACCCGUGCAAAAUUGCAGGGGUCUAAAACGACCUGAAUAUUUCAGAUCAAA
RNA 2: GGGAAUGGAUCCACAUCUACGAAUUCGUUCUUGAUCUGAAAUGUUCAGGUCUGCAGAUCGGAAGAGCACACGU
B14 was tested, and the Kd was 25.9 ± 4 nM.

B15: target 3 insG 3' of 2,insA 3' of 1 (mixed)
RNA 1: CACCCGUGCAAAAUUGCAGGGGUCUAAAACGACCUGAAUAUUUCAGAUCAAA
RNA 2: GGGAAUGGAUCCACAUCUACGAAUUCGUUUUUGAUCUGAAAUAUUCAGGUGCAUGCAGAUCGGAAGAGCACACGU
In the case of B15, the Kd is reported as 54.2 ± 6.65 nM.

B16: target 3 insA 3' of 6,insC 3' of 5 (mixed)
RNA 1: CACCCGUGCAAAAUUGCAGGGGUCUAAAACGACCUGAAUAUUUCAGAUCAAA
RNA 2: GGGAAUGGAUCCACAUCUACGAAUUCGUUUUUGAUCUGAAAUAUUCAACGGUCUGCAGAUCGGAAGAGCACACGU
B16 showed a Kd of 7.3 ± 0.55 nM.

B17: target 3 A13G,U22G (mixed)
RNA 1: CACCCGUGCAAAAUUGCAGGGGUCUAAAACGACCUGAAUAUUUCAGAUCAAA
RNA 2: GGGAAUGGAUCCACAUCUACGAAUUCGUUGUUGAUCUGGAAUAUUCAGGUCUGCAGAUCGGAAGAGCACACGU
B17 gave a Kd of 67 ± 26 nM.

B18: target 3 U2A,U22C (mixed)
RNA 1: CACCCGUGCAAAAUUGCAGGGGUCUAAAACGACCUGAAUAUUUCAGAUCAAA
RNA 2: GGGAAUGGAUCCACAUCUACGAAUUCGUUCUUGAUCUGAAAUAUUCAGGACUGCAGAUCGGAAGAGCACACGU
B18 showed a Kd of 23.1 ± 3.7 nM.

B19: target 3 insU 3' of 16,insC 3' of 3 (mixed)
RNA 1: CACCCGUGCAAAAUUGCAGGGGUCUAAAACGACCUGAAUAUUUCAGAUCAAA
RNA 2: GGGAAUGGAUCCACAUCUACGAAUUCGUUUUUGAUCUUGAAAUAUUCAGGCUCUGCAGAUCGGAAGAGCACACGU
Binder B19 has a Kd of 64.5 ± 10 nM.

B20: target 3 C6A,A9G (mixed)
RNA 1: CACCCGUGCAAAAUUGCAGGGGUCUAAAACGACCUGAAUAUUUCAGAUCAAA
RNA 2: GGGAAUGGAUCCACAUCUACGAAUUCGUUUUUGAUCUGAAAUGUUAAGGUCUGCAGAUCGGAAGAGCACACGU
B20 was tested, and the Kd was 59.5 ± 13 nM.

B21: target 3 insC 3' of 22,insA 3' of 22 (mixed)
RNA 1: CACCCGUGCAAAAUUGCAGGGGUCUAAAACGACCUGAAUAUUUCAGAUCAAA
RNA 2: GGGAAUGGAUCCACAUCUACGAAUUCGUUUCAUUGAUCUGAAAUAUUCAGGUCUGCAGAUCGGAAGAGCACACGU
In the case of B21, the Kd is reported as 20.2 ± 2.4 nM.

B22: target 3 U21A,U22A (mixed)
RNA 1: CACCCGUGCAAAAUUGCAGGGGUCUAAAACGACCUGAAUAUUUCAGAUCAAA
RNA 2: GGGAAUGGAUCCACAUCUACGAAUUCGUUAAUGAUCUGAAAUAUUCAGGUCUGCAGAUCGGAAGAGCACACGU
With B22 the Kd was 26.6 ± 3 nM.

B23: target 3 insC 3' of 11,insG 3' of 2 (mixed)
RNA 1: CACCCGUGCAAAAUUGCAGGGGUCUAAAACGACCUGAAUAUUUCAGAUCAAA
RNA 2: GGGAAUGGAUCCACAUCUACGAAUUCGUUUUUGAUCUGAAACUAUUCAGGUGCUGCAGAUCGGAAGAGCACACGU
Work on B23 yielded a Kd of 54 ± 14 nM.

B24: target 3 G4C,U8A (mixed)
RNA 1: CACCCGUGCAAAAUUGCAGGGGUCUAAAACGACCUGAAUAUUUCAGAUCAAA
RNA 2: GGGAAUGGAUCCACAUCUACGAAUUCGUUUUUGAUCUGAAAUAAUCACGUCUGCAGAUCGGAAGAGCACACGU
For B24, the Kd was 71.5 ± 10 nM.

B25: target 3 U2A,A12U (mixed)
RNA 1: CACCCGUGCAAAAUUGCAGGGGUCUAAAACGACCUGAAUAUUUCAGAUCAAA
RNA 2: GGGAAUGGAUCCACAUCUACGAAUUCGUUUUUGAUCUGAUAUAUUCAGGACUGCAGAUCGGAAGAGCACACGU
For B25, the Kd was 79 ± 17 nM.

B26: target 3 C16U (mixed)
RNA 1: CACCCGUGCAAAAUUGCAGGGGUCUAAAACGACCUGAAUAUUUCAGAUCAAA
RNA 2: GGGAAUGGAUCCACAUCUACGAAUUCGUUUUUGAUUUGAAAUAUUCAGGUCUGCAGAUCGGAAGAGCACACGU
Binder B26 has a Kd of 82.5 ± 14 nM.

B27: target 3 A5U,C6A (mixed)
RNA 1: CACCCGUGCAAAAUUGCAGGGGUCUAAAACGACCUGAAUAUUUCAGAUCAAA
RNA 2: GGGAAUGGAUCCACAUCUACGAAUUCGUUUUUGAUCUGAAAUAUUAUGGUCUGCAGAUCGGAAGAGCACACGU
In the case of B27, the Kd is reported as 29.9 ± 2.7 nM.

B28: target 3 complement block 18-20 (mixed)
RNA 1: CACCCGUGCAAAAUUGCAGGGGUCUAAAACGACCUGAAUAUUUCAGAUCAAA
RNA 2: GGGAAUGGAUCCACAUCUACGAAUUCGUUUUACUUCUGAAAUAUUCAGGUCUGCAGAUCGGAAGAGCACACGU
B28 was tested, and the Kd was 26.1 ± 5.05 nM.
